# Measured values: paper PMC10899789
# Columns and labels:
# Settings in all cases: 50 mM Tris-HCl pH 7.5, 50 mM NaCl, 10 mM MgCl2; SV at 20 C, SE under same conditions (5000 rpm, 260 nm)
# [1] = molecular target: T1, p6CΔ20 del85-104 (Bacillus subtilis phage phi29) (UniProt P03685); experiment: sedimentation velocity
# T1 sequence: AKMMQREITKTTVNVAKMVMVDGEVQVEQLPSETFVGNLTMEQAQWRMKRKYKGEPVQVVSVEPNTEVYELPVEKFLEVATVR
# [2] = molecular target: T1, p6CΔ20 del85-104 (Bacillus subtilis phage phi29); experiment: sedimentation equilibrium
# [3] = molecular target: T2, p6 wt (Bacillus subtilis phage phi29) (UniProt P03685); experiment: sedimentation equilibrium
# T2 sequence: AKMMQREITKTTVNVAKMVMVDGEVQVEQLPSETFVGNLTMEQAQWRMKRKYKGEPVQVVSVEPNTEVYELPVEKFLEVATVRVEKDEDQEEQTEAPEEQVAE
sequence,measurement,setting,value
GCCCACATACTTTGTTGATTGGTTGTCAATCATGGCAAAAGTGCACGCTACTTTGATAACCTTTTACATGCGACACAGACGAAGCGCTAAAACGTGGGATTCTGTGTCGTTTTATGTTGTTCATTGACAAACCTATCTAGTAGGTCTATAGATTGATATATTAAGTAGTAGTTTCCCTCCCTGATCATGGTATGCCGAGGATCGACGGATTATGTCGATATTAGGAGAATGGTATCATGTGAGGGTGGGGGCTTACTTT (double strand) [L fragment (DNA-L)],binding,[1],binds
same,Kd,[2],1470 nM
same,Kd,[3],2460 nM
